Source: patent US20200317768A1 (published 2020)

T1: cynomolgus monkey FcγRIIa1 extracellular domain, His-tagged (cynomolgus monkey)
T1 construct: also called cyno FcgRIIa1; cynoFcγRIIa1; not shown: His-tag added to the C-terminus
T1 chain: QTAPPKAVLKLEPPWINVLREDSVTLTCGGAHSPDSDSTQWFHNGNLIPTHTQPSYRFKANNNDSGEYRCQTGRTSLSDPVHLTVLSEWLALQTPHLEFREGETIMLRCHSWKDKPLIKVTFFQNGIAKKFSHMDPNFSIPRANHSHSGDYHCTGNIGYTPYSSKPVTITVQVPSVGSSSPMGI

T2: human FcγRIIaR extracellular domain, His-tagged (human, UniProt P12318 34-217)
T2 construct: also called human FcgRIIaR; FcγRIIa (type R); not shown: His-tag added to the C-terminus
T2 chain: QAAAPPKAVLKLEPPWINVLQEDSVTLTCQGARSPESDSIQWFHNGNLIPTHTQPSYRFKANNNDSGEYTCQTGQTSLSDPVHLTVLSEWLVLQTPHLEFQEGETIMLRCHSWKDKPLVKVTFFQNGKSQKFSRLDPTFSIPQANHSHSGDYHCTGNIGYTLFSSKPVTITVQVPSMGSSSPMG

T3: human FcγRIIb extracellular domain, His-tagged (human, UniProt P31994 43-217)
T3 construct: also called human FcgRIIb; not shown: His-tag added to the C-terminus
T3 sequence: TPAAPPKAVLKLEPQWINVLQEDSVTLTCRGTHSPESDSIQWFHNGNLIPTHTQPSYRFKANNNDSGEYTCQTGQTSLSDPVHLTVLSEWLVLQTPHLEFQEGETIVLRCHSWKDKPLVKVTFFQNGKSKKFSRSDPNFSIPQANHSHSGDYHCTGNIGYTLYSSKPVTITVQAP


Experiments:
Test in all cases: SPR (BIACORE), antibody captured, FcγR as analyte, 25°C
[1] = target: T1, cynomolgus monkey FcγRIIa1 …
Description: (§1) The kinetic analysis of interactions between these antibodies and FcγR was carried out using BIACORE® T200 or BIACORE® 4000 (GE Healthcare). HBS-EP+ (GE Healthcare) was used as the running buffer, and the measurement temperature was set to 25° C. A chip produced by immobilizing Protein A. Protein A/G or mouse anti-human IgG kappa light chain (BD Biosciences) onto a Series S Sensor Chip CM4 or CM5 (GE Healthcare) by the amine-coupling method was used. […] After the measurement, the antibody captured on the chip was washed off by allowing reaction with 10 mM glycine-HCl, pH1.5 and 25 mM NaOH so that the chip was regenerated and used repeatedly. The sensorgrams obtained as measurement results were analyzed by the 1:1 Langmuir binding model using the BIACORE® Evaluation Software to calculate the binding rate constant ka (L/mol/s) and dissociation rate constant kd (l/s), and the dissociation constant KD (mol/L) was calculated from these values. […] Regarding such interactions, KD values were calculated using the following 1:1 binding model described in BIACORE® T100 Software Handbook BR1006-48 Edition AE.
(§2) The behavior of interacting molecules according to the 1:1 binding model on BIACORE® can be described by Equation 1: Req=C·R max/(KD+C)+RI, wherein, Req is a plot of steady-state binding levels to analyte concentration. C is concentration, RI is bulk refractive index contribution in the sample, and Rmax is analyte binding capacity of the surface. When this equation is rearranged, KD can be expressed as Equation 2: KD=C·Rmax/(Req−RI)−C. KD can be calculated by substituting the values of Rmax, RI, and C into Equation 1 or Equation 2. From the current measurement conditions, RI=0, C=2 μmol/L can be used.

[2] = target: T2, human FcγRIIaR extracellular domain, …
Description: as §1, §2

[3] = target: T4, human FcγRIIIaV extracellular domain, His-tagged (human, UniProt P08637 17-208)
T4 construct: also called human FcgRIIIaV; not shown: His-tag added to the C-terminus
Description: as §1, §2

[4] = target: T5, cynomolgus monkey FcγRIIIaS extracellular domain, His-tagged (cynomolgus monkey, UniProt A3RFZ7 21-206 (rhesus entry))
T5 construct: also called cyno FcgRIIIaS; cynoFcγRIIIaS; not shown: His-tag added to the C-terminus
Description: as §1, §2

[5] = target: T3, human FcγRIIb extracellular domain, …
Description: as §1, §2

T4 sequence (P08637 17-208 F176V): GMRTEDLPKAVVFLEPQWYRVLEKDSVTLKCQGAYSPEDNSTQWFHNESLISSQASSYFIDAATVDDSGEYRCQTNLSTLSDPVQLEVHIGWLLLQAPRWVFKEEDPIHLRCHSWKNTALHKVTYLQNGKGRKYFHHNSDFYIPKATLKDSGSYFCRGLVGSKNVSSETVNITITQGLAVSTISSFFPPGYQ

Row | Kd [1] | Kd [2] | Kd [3] | Kd [4] | Kd [5] | Binder
1 | 5.6 µM | 2.3 µM | 64 µM | 3.7 µM | 12 µM | M103205H795-MY264/M103202L889-SK1 (antibody, human IgG1, kappa, copies: 2 + 2) heavy: QVTLKESGPVLVKPTETLTLTCTVSGIDLSHDDISWVRQAPGKGLEWVGIISYAGSTYYASWAKGRLTISKDTSKNQVVLTMTNMDPVDTATYYCARGVPAYSHGGDLWGQGTLVTVSSASTKGPSVFPLAPSSKSTSGGTAALGCLVKDYFPEPVTVSWNSGALTSGVHTFPAVLQSSGLYSLSSVVTVPSSSLGTQTYICNVNHKPSNTKVDKKVEPKSCDKTHTCPPCPAPELLLGPSVFLFPPKPKDTLMISRTPEVTCVVVDVSDEDPEVKFNWYVDGVEVHNAKTKPREEQYNSTYRVVSVLTVLHQDWLNGKEYKCKVSNKALPKPIEKTISKAKGQPREPQVYTLPPSREEMTKNQVSLTCLVKGFYPSDIAVEWESNGQPENNYKTTPPVLDSDGSFFLYSKLTVDKSRWQQGNVFSCSVMHEALHNHYTQKSLSLSP light: DIVMTQSPATLSLSPGERATLSCTSSQSVYHANWLSWFQQKPGQPPKLLIYWASTLAYGVPSRFSGSGSGTDFTLTISSLQPEDAATYYCAGGYGGGRYAFGQGTKVEIKRTVAAPSVFIFPPSDEQLKSGTASVVCLLNNFYPREAKVQWKVDNALQSGNSQESVTEQDSKDSTYSLSSTLTLSKADYEKHKVYACEVTHQGLSSPVTKSFNRGEC
2 | 2.2 µM | 0.44 µM | 54 µM | 2 µM | 2.2 µM | M103205H795-MY265/M103202L889-SK1 (antibody, human IgG1, kappa, copies: 2 + 2) heavy: QVTLKESGPVLVKPTETLTLTCTVSGIDLSHDDISWVRQAPGKGLEWVGIISYAGSTYYASWAKGRLTISKDTSKNQVVLTMTNMDPVDTATYYCARGVPAYSHGGDLWGQGTLVTVSSASTKGPSVFPLAPSSKSTSGGTAALGCLVKDYFPEPVTVSWNSGALTSGVHTFPAVLQSSGLYSLSSVVTVPSSSLGTQTYICNVNHKPSNTKVDKKVEPKSCDKTHTCPPCPAPELLTGPSVFLFPPKPKDTLMISRTPEVTCVVVDVSDEDPEVKFNWYVDGVEVHNAKTKPREEQYNSTYRVVSVLTVLHQDWLNGKEYKCKVSNKALPKPIEKTISKAKGQPREPQVYTLPPSREEMTKNQVSLTCLVKGFYPSDIAVEWESNGQPENNYKTTPPVLDSDGSFFLYSKLTVDKSRWQQGNVFSCSVMHEALHNHYTQKSLSLSP light: DIVMTQSPATLSLSPGERATLSCTSSQSVYHANWLSWFQQKPGQPPKLLIYWASTLAYGVPSRFSGSGSGTDFTLTISSLQPEDAATYYCAGGYGGGRYAFGQGTKVEIKRTVAAPSVFIFPPSDEQLKSGTASVVCLLNNFYPREAKVQWKVDNALQSGNSQESVTEQDSKDSTYSLSSTLTLSKADYEKHKVYACEVTHQGLSSPVTKSFNRGEC
3 | 24 µM | 0.72 µM | 15 µM | 2.7 µM | 5.7 µM | M103205H795-MY267/M103202L889-SK1 (antibody, human IgG1, kappa, copies: 2 + 2) heavy: QVTLKESGPVLVKPTETLTLTCTVSGIDLSHDDISWVRQAPGKGLEWVGIISYAGSTYYASWAKGRLTISKDTSKNQVVLTMTNMDPVDTATYYCARGVPAYSHGGDLWGQGTLVTVSSASTKGPSVFPLAPSSKSTSGGTAALGCLVKDYFPEPVTVSWNSGALTSGVHTFPAVLQSSGLYSLSSVVTVPSSSLGTQTYICNVNHKPSNTKVDKKVEPKSCDKTHTCPPCPAPELLIGPSVFLFPPKPKDTLMISRTPEVTCVVVDVSDEDPEVKFNWYVDGVEVHNAKTKPREEQYNSTYRVVSVLTVLHQDWLNGKEYKCKVSNKALPKPIEKTISKAKGQPREPQVYTLPPSREEMTKNQVSLTCLVKGFYPSDIAVEWESNGQPENNYKTTPPVLDSDGSFFLYSKLTVDKSRWQQGNVFSCSVMHEALHNHYTQKSLSLSP light: DIVMTQSPATLSLSPGERATLSCTSSQSVYHANWLSWFQQKPGQPPKLLIYWASTLAYGVPSRFSGSGSGTDFTLTISSLQPEDAATYYCAGGYGGGRYAFGQGTKVEIKRTVAAPSVFIFPPSDEQLKSGTASVVCLLNNFYPREAKVQWKVDNALQSGNSQESVTEQDSKDSTYSLSSTLTLSKADYEKHKVYACEVTHQGLSSPVTKSFNRGEC
